Bridges are numbered along the chain shown (N, C = ends). Where no end group is shown, it is not given here.

The Kd is the concentration at which binding is half-saturated.

The target in the experiment is T1, low-density lipoprotein receptor-related protein 6 (LRP6) (UniProt O75581 20-1370, limits assumed).
T1 construct: also called LRP6 receptor
T1 sequence (looked up): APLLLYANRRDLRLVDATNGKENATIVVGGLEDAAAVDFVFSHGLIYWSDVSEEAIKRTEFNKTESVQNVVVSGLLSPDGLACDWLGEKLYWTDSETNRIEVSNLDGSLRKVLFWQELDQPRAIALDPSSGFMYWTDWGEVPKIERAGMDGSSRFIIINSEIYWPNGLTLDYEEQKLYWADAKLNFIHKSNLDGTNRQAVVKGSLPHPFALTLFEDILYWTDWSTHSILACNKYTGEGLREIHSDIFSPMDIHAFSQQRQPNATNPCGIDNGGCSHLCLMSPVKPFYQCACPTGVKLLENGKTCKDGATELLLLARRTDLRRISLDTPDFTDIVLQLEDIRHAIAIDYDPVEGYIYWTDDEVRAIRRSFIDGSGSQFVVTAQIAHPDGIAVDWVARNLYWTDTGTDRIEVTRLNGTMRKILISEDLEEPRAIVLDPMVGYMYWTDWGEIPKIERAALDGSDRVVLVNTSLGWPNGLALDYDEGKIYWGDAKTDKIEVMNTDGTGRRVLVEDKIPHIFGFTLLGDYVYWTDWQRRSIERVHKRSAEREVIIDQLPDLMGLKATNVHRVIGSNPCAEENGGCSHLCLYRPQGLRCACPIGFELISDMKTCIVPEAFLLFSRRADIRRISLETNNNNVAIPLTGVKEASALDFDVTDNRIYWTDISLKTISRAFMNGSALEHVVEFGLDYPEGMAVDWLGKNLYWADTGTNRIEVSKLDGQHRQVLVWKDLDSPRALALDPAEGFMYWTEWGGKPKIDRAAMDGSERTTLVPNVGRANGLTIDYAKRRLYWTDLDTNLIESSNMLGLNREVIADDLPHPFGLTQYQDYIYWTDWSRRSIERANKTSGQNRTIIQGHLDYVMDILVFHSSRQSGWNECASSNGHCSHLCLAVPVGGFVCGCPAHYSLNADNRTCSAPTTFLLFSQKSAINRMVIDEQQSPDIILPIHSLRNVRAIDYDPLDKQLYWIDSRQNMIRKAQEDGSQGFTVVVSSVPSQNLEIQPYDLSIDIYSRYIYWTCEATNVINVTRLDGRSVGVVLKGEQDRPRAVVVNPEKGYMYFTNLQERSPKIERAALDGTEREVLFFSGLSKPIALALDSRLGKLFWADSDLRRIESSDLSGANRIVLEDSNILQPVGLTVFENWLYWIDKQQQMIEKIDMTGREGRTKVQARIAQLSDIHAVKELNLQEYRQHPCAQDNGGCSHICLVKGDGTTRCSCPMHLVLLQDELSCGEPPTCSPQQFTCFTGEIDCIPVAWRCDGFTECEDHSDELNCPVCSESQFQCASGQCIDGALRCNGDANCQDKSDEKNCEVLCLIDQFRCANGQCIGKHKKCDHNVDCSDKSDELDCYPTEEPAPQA
The experiment in a line: LSPR spectroscopy; peptide on nanoparticles as ligand, LRP6 as analyte at 10^-9 to 10^-6 M; sigmoid fit of plasmon shift. Here is the method: In this example, the binding affinity of exemplary peptides to the LRP6 receptor was determined by performing localized surface plasmon resonance (LSPR) spectroscopy. In the LSPR spectroscopy, the response of free electrons to nanoparticles in the presence of biomolecules may be observed as changes in wavelength and intensity of absorption. A stabilized compound on the nanoparticles' surface is called a ligand, and a second free compound is called an analyte. […] Also, the LRP6 was used as the analyte because of its negative surface charge. By adding the LRP6 as the analyte in the concentration ranges of 10⁻⁹ M to 10⁻⁶ M, the wavelength changes (plasmon shift) were recorded for each concentration. In the end, the KD values of exemplary peptides were determined by calculating the sigmoid curve of wavelength changes in terms of LRP6 concentration.

B1: pep-2 (SEQ ID NO: 2) (peptide)
peptide: QVCTKHRRKGSHGLEIFQRCY
notes: Held on nanoparticles as the ligand in the LSPR assay
In the case of B1, the Kd was about 470 nM.

B2: pep-4 (SEQ ID NO: 4) (peptide)
peptide: CCARHFWSKIC
modifications: disulfide 1-11
notes: Made by synthesis; Held on nanoparticles as the ligand in the LSPR assay
Turning to B2, the Kd was about 550 nM.

For the origin of these results see patent US20210198329A1 (PASTEUR INSTITUTE OF IRAN, published 2021).
